# From the DeepSol protein solubility set
# Assay: soluble on expression in E. coli; label from the status in PepcDB or PDB records
row,Sequence,soluble on expression in E. coli
1,MGSVITKETVLQENIYLKKLSGLEPVDDYDPFWNKLLSFSLKFDDDDEDTRIALESALDDHLQCLMYNTQTTGNFAAFIRLFLRRATELKTSEQCENKIYLWQTSNALLILRYIARFLTQRMTEKEFVRIFAKSHESTETESSSTSSSSDEEDDDEQKSENENNNGATKYIPIVFQNTAEEFTYELVSILINISVNETTLAIHVEAVRCLLTLLSSQLYNESIVNTSIVFRFFIDGSCAKHAASLTKTLLLNYLIHNSEYHMTVQKPQESIVFGLASSMWSMVQMATGIDSAEEEKKPPLTLGNLSILLLLNLSCHQPLNSSNPFKETLALFQNAQEVSTLPTQIVSFKIDYNGLYERLCATAGQEPPMLLLYMLLQANSGFRNYVLSRINLENLVVPVLRILHDGVATSNNSHHVYLALIVALILSEDDIFCKIIHETMIKDLGWLDSDFSVREISLGGLTTLVLVRAIQKNALKTRDRYLHTNCLAALANMSAFFKNLAPIVCQRLISLLDLLTKRHAKMVDHMRVSSQNDVADGQPINFHDDITALEEGIRTLLEIINSALCGGLRHNSHLIYNLLYHRALFDAYVQHPMFQDLLVNIAAVISHFSSKVIHVPAGDGSTMLQIIEKEANIWPTDRLAKFPELKFRYVEDEYTVDFFVPYVWRLSVQHSGIYFETSRIKIFNAQSIA,not soluble
2,MGSDKIHHHHHHMGTVLIHVCCAPDLLTTIFHVRDAEFFFYNPNIQPLSEYEKRREAVDKVANHFSLNVRYGEYSTEEIRKWYTAVKDYKDLGEGSKRCERCISFLLERTAQEARKRGHESFSTTLLASPRKNLPMIENIGKTIEEKYGVKFFFKNFRKGGAYQEGVRLSKELGIYRQNYCGCVFSLLERREKHAEISRKRGHM,not soluble
3,VKRGLKPIVGLNQHIQQISPEQMGIRLDPDSLPIELRELANKHNAMLDRLQTGFRRLSEFSSDIAHELKTPLTNITTQNQVILGACRTSEEYQDAIASTLEELNRITKTINDLLYIAKAENKLIHRHDEVFAVQEEIDRLVAYFEILAEDAEVRIVSSGDGQLYM,not soluble
4,MEEELASYKLQLQQVEAALLGDPTNVELLKLKEDLGEIISLQEDLAETDKAESSERAVVAPQVIHKWTVGERVIAPHPDGKKVFARIDSLTPAGVAITFTSTGTKTIVDPADLQLPPENQRKNYAFDNTKSAAGPSTQHGKKEWQAEKERRRQKALKKQQKQKELDSIKDGEKKSWQKFNTKANAKGLKGLKKVSATGSSQDGSASSSGGGGEKRGTIVSSRSSQFIFKATRGAMDSLF,not soluble
5,MSDNEIVAGIMRDHIINLLKEGKRIDDRGFEDYRPIEIEVGIIEKAEGSALVKLGSTQVLVGIKTTLGEPFPDTPNMGVMTTNVELVPLASPTFEPGPPDERAIELARVTDRGIRESRALNLEKMVIVPGKIVRVVFIDVHVLDHDGNLMDAIGIASIAALLNAKVPKVEYNEETGEVEILEEKEPLPVERIPIPVTFAKIGNILVVDPSLEEELVMDGRLTVTTDETGHISAVQKGEGGAFKLEEVMYAVETAFKKAEEIRKIVLEAIKKSGE,soluble
6,MYLTIKSIMLLRKYLLVTESQVSKCGFHIVKKKGDVLYPKRTKYSKYRKGRCSRGCKPDGTKLGFGRYGTKSCKAGRLSYRAIEAARRAIIGHFHRAMSGQFRRNGKIWVRVFADLPITGKPTEVRMGRGKGNPTGWIARVSTGQIPFEMDGVSLANARQAATLAAHKPCSSTKFVQWSLEHHHHHH,not soluble
7,MGSDKIHHHHHHMIERVINNIEKVIKGKREAIEVVVAALLAKGHVLMEDVPGVGKTMLARALALSLGVDFRRVQFTPDLLPTDLTGLYIYDRKKEDFVFKKGPVFTDVLLADEINRATPRTQSALLEAMAEGQVTVDGVTHRLSERFFVIATQNPIEYEGTFPLPEAQLDRFMICVKMGYPDEEAEIQMLTSQEKEHPISQLEPVMNPDELSELQKKVRNVFVSDEVKKYIVDIASATRNHPSLLLGMSPRGSIALMHFSMALAFMDGRDFTLPDDVKRAAVYVIPHRVIQSAESKLKREKKEDIVREILDRVKVVK,not soluble
8,MPSKQVGWWTMSEHTNDEVQPTALSGNDAVNRAAEQWKESAHRNIPGLGDLPIPDDTANLREGPNLHDGLLALLPLVGVWRGTGHADTAEEGQYAFGQQITFAHDGENYLTYESRIWKLDDEGNSTDLDYRESGFWRISLKDEIEVVLTHSTGVAEIFYGEPMNERAWQIESASTMVTAQGPATLGPGKRLYGLMPNNNLGWVDERMVDGEMRPRMSAELSRVIGLEHHHHHH,soluble
9,MVSIIIPIYNVQDYINDCLYSVYTQTYSEIEVILVNDCTPDNSMLIAHSNIEKLKKRFNVKIIDHKSNKGLSAARNSGVKEATGEWVYFLDSDDEITPDCIECFVRLAERYLSVDFIVGGIRVIGRNISYRLTTSEYVIGNDNILKCYISGMWYEMAWNKLIRKEYFVSNNLWFKEGLLHEDQLFSYQLATTALTMATVNKPTYIYKMRMSGAITSSNGRKNFDSFICILEYMVYSVMQKYSTSSVTLEYAQIIRFSYSILLSLYGKHNLTEMEVVNYELKVDRICRIVTFYKCKLPVPIQIKLTIIKLPQTMRKVLLKWHNKKIQKKLEHHHHHH,soluble
10,MNMFNRKAKQEVTKKPEASNGSKNSKSTFVNSKSPNQKRREVKKSDSDTESSHKNTRRTKPVPVPAASSNSKGSNEKHKRKSVQQVVKKVVNHIPFSPSKQPKSTSTPPVSEGNRKRLAMADVSINQLESEMDSFVKKIEPNERRATQYIHSNSLSRSNEAVPPGNVKTSQQKADHHLIRTTRSLIGLDGETEAVYSKATKASPDKGKLTADSPSSRRTSKSLEENSSETTNDSISLADDEETREAYRKLFKDFAMSSQKMTLDDFKQEFSNLPGDPPSDLCTVFNHPVNNKKNRYSNIPCLDISRVQLKFKMPNKNSTDYIHANYIRSPFLKRGYILTQGPKKETRADFWRMIWQENTTAIVMLCQFLETNREKCAEYFPRNAHCCLQFDKFSVNYEDSTVNKSLVTTRLNLSYEGETRLITHWLWKEWPDWQVPESSEVMLKILRKIRARSTPPVIHCSAGVGRSGTLMAVEIALQSIHTHFTLPDIKQIVSHLRVTGRAASVQTLQQYMLIWKVLLDFGVAYKQITEELAEKFNSTYRRSLRSINGT,not soluble
11,MAHHHHHHMAPMSSSGIRGLSLRSVRETVHCATTQTTSAPPPPANCQQHQLLNTTEDKCNAIFAEVELLSKWLQHAVESRAHVEREAYALLQQADVKIQHLEDTVRQKEMELLYMRGAMESLRTRVEFYECRERRIEGDDDDANFPLRREADFKGAAVRKVVIMGENNTNDSYCSNRMGRGNGVMSPADFTVDSTEQLNAGKCVDLGTTATTCNSNGVDNASVSSPAETGVGGRSRVGHSALSWVRYLLERCVSNSGKDGASEGAASMKKKGEGNDQLADALTMLTTLQCQYADPNGDLVMMNSLCTKFSNSIVAVAEELNTALQIPLKRASNTTDSLQISQAAKVVEHPESAAEALPSSNQEPIMQCRKSVVEENLQLLQSLMAVESSSREAWSTLQKY,not soluble
12,MGSDKIHHHHHHSHKYTAITPGVEWLDTNNEKINAHGGGILYHEGIYYWYGECKSDSTYWNPNVPGWECYRTEAGGVNCYSSKDLLNWKYEGLVLQPEISDTQSDLHPSKVLERPKVIYNDKTKKFVMWLHVDSDDYNKAAAGVAVSDSPTGVFTYLGSMHPNGQISRDMTLFKDDDGKAYHIYSSEQNSTLYISLLSDDYLKPSGTFTRNFAGKFREAPAVFKHNGLYYVISSGCTGWSPNEAEYAVATQILGPWTVKGNPCVGKDADKTFYGQSTHVLPIQGKKDAYIAMFDKWNKTDLIHSTYIWLPIQFREDGSMAIQWLDSWSPDTYEF,not soluble
13,GPGSMNPHSRMPEDGGNAQPNETHRLMVGAAGQRPNVSGQFGKSTSPSLVAFAFLHLPLEDGCGAEEEEQNFLAFDVTTWATRIRNEGISGAVVDLWGAYNYYWHQADDRVQLALDSLASWMHALEMDRDPADRFTDLGRILLQVFWLQMMVTTANPGITISTLCARLHMAVHEAETCARATKPLA,soluble
